Results taken from the nanobody polyreactivity screen of Harvey et al. (2022).

assay: yeast display, Sf9 membrane polyspecificity reagent, FACS + sequencing; frameworks hold sequencing errors
In short: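 A synthetic nanobody library was expressed on Saccharomyces cerevisiae BJ5465 by galactose induction for 36–48 hours. The library was stained for 1 hour at 4 °C with 10% biotinylated, detergent-solubilized Sf9 membrane reagent and enriched with streptavidin microbeads before FACS. Low and high (top ~1%) gates were set on anti-HA fluorescence for expression and streptavidin fluorescence for reagent binding, and each polyreactivity label reflects the gate of origin.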

Sequence | polyreactivity (PSR sort gate)
QVQLVESGGGLVQAGGSLRLSSAASGLTFALYAMGWYRQAPGKERELVATISRGASTNYADSVKGRFTISRDNTKNTVYLQMNSLKPEDTAVYYWAVALRSTPRTREVRPSPRVYYWGQGTQVTVSS | high polyreactivity
QVQLVESGGGLVQAGGSLRLSSAASGNIFKSYTMGWYRQAPGKERELVAAITSGGRTNYGDSVKGRFTISRDNAKNTVYLQMNSLKPEDTAVYYCNAYKVFWVSIRYKFDYWGQGTQVTVSS | high polyreactivity
QVQLVESGGGLVQAGGSLRLSSAASGRIFAYNAMGWYRQAPGKEREFVAAITLGTGRTYYADSVKGRFTISRDNAKNTDYLQMNSLKAEDTAVYYCAARRVRGDVDYWYIYDYWGQGTQVTVSS | high polyreactivity
QVQLVESGGGLVQAGGSLRLSSAASGRIFDANDMGWYRQAPGQERELVAVISSRGGSTYYADSVKGRFTISRDNAKNTVDLQMNSLKPEEAAVYYCAKGLSVAGYDYWGQGTQVTVSS | low polyreactivity
QVQLVESGGGLVQAGGSLRLSSAASGRIFIRNAMGWYRQAPGKERELVAAISWSGGRTYYADSVKGRFTISRDNAKNTVYLQMNSLKPEDTAVYYCAALRYAFQYGLSYYWGQGTQVTVSS | high polyreactivity
QVQLVESGGGLVQAGGSLRLSSAASGRIFKKNSMGWYRQAPGKERELVAAINWTGGSTYYADSVKGRFTISRDNAMNTVYLQLNSLKPEDTAFYYCAVGVYPSYRGPTFSTRRDYWGQGTQVTVSS | low polyreactivity
QVQLVESGGGLVQAGGSLRLSSAASGRIFKYYVMGWYRQAPGKEREFVAAISGRGGRTYYADSVKGRFTISRDNAKNTVYLQMNSLKPEDTAVYYCATERQDRGPLGYNYWGQGTQVTVSS | high polyreactivity
QVQLVESGGGLVQAGGSLRLSSAASGRIFRKYAMGWYRQAPGKERELVAAISGSGVSTYYADSVKGRFTISRDNAKNTVYLQMNSLKPEDTAVYYCNARIILRGYKSYRYDYWGQGTQVTVSS | high polyreactivity
QVQLVESGGGLVQAGGSLRLSSAASGRIFSINAMGWYSQAPGKERELVATISWRGGSTYYADSVKGRFTISRDNAKNTVYLQMNSLKPEDTAVYYCAAKYPYYSSYAYGYWGQGTQVTVSS | high polyreactivity
QVQLVESGGGLVQAGGSLRLSSAASGRIFTYYTMGWSRQAPGKERELVAAISARGGNTYYADSVKGRFTISRDNAKNTVYLQMNSLKPEDTAVYYCAAGWVTSRTYYTHQIRNPLDYWGQGTQVTVSS | high polyreactivity
QVQLVESGGGLVQAGGSLRLSSAASGRIFYGYTMGWYRQAPGKERELVAAITQSSGSTYYADSVKGRFTISRDNAKNTVYLQMNSLKPEDTAVYYCARDPGRRYSYTYDYWGQGTQVTVSS | low polyreactivity
QVQLVESGGGLVQAGGSLRLSSAASGRIFYLNAMGWYRQAPGIERELVAAINTSGDSTYYADSVKGRFTISRDNAKNTVYLQMNSLKPEDTEVYYCAAYVIGPDHFIYDYWGQGTQVTVSS | low polyreactivity
QVQLVESGGGLVQAGGSLRLSSAASGRILKYYAMGWYRQAPGKERELVAAIGSGGSTYYADSVKGRFTISRDNAKNTVYLQMNSLKPDDTAVYYCNAEDQWGGYGYDYWGQGTQLTVSS | low polyreactivity
QVQLVESGGGLVQAGGSLRLSSAASGRILPVNTMGWYRQAPGKERELVAVITRSGGRTYYADSVKGRFTISRDYAKNTVYLQMNSLKPEDTAVYYCAADVGFRWYRYTAGPLEYDYWGQGTQVTVSS | high polyreactivity
QVQLVESGGGLVQAGGSLRLSSAASGRILQFNAMGWYRQAPGKDRELVAAITSGGSTNYADSVKGRFTISRDNAKNTVYLQMNSLKPEVTAVYYCAAQSLLWQRRLRGYYYWGQGTQVTVSS | high polyreactivity
QVQLVESGGGLVQAGGSLRLSSAASGRISQNAIGWYRQAPGKERELVAAITFSGGSTYYADSVKGRFTISRDNAKNTVFLQMNSLKPEDTAVYYCAAEDRPLYWRFPDEMDYWGQGTQVTVSS | low polyreactivity
QVQLVESGGGLVQAGGSLRLSSAASGRLFGLNALGWYRQAPGKERELVASSTYSGGSTYYADSVKGRFTISRDNAKNTVYLQMNSLKQEDTAVYYCAGDSWYYWYSTYDYWGQGTQETVSS | high polyreactivity
QVQLVESGGGLVQAGGSLRLSSAASGRTFAYYAMGWYRQAPGKERELVAAISSAGRTYYADSVKGRFTISRDNAKNTVYLQMNSLKTEDTAVYYCAAEWYYYVIWLYEYWGQGTQVTVSS | high polyreactivity
QVQLVESGGGLVQAGGSLRLSSAASGRTFGRYAMGWYRQAPGKERELVAAITRSGSSTYYADSVKGRFTISRDNAKNTVYLQMNSLKPEDTAVYYCAALYGPFYSTGEYWGQGTQVTVSS | high polyreactivity
QVQLVESGGGLVQAGGSLRLSSAASGRTFGYNAMGWYRPATGKERELVAAISWSGARTYYADSVKGRFTISRDIAKNTVYLQLNSLTPEDTAVYYCAAGIDGYYWPFFRNYDYWGQGTQVTVSS | high polyreactivity
QVQLVESGGGLVQAGGSLRLSSAASGRTFLRYAMGWYRQAPGKVRELVAAISWSGGRTYYADSVKGRFRISRDLAKNTVYLQMNSLKTEVTAVYYCNKGVLYGAHFYYWGQGTQVTGSS | high polyreactivity
QVQLVESGGGLVQAGGSLRLSSAASGRTFPHYAMGWYRQAPGKERELVAAISSSGGSTYYADSVKGRFTISRDNAKNTVYLQMNSLKPEETAVYSCAARYVDDGWKYAYWGQGTQVTVSS | low polyreactivity

Sequence | polyreactivity (PSR sort gate)
QVQLVESGGGLVQAGGSLRLSSAASGRTFRPNAMGGYRQAPGKERELVAGITRGGSTKYADSVKGRFTISRDNSKNTVYLQMNSLKPEDTAVYYCAVERGSYSYDRPFYYCGQGTQVTVSS | high polyreactivity
QVQLVESGGGLVQAGGSLRLSSAASGRTFRWYTMGWYRQAPGKERELVAAISYSGGRTYYADSVKGRFTISRDNAKNTVYLQMNSLKPEDTAVYYCNKRGPSYWRYVETSEYYYWGQGTQVTVSS | high polyreactivity
QVQLVESGGGLVQAGGSLRLSSAASGRTFWVYAMGCYRQAPGKESELVAAISRSGVSTYYADSVMGRFTISRDNAKNTVYLQMNSLKPEDTAVYYCAAPLIYTPLKYHYWGQGTQVTVSS | low polyreactivity
QVQLVESGGGLVQAGGSLRLSSAASGRTFYKYAMGWYRQAPGKERELVAAISWNGGSTYYADSVKGRFTISRDNAKNTVYLQMNSLKPEDTAVYYCNVVNQRSRTGDYWGQGTQVTVSS | high polyreactivity
QVQLVESGGGLVQAGGSLRLSSAASGRTIDGNAMVWYRQAPGKEREWVATITRGGSTYYADSVKGRFTISRDNAKNTVYLQMNSLKPEDTSVYYCAARYYGRSQHHFDYWGQGTQVTVSS | high polyreactivity
QVQLVESGGGLVQAGGSLRLSSAASGRTLAGYAMGWYRQAPGKERELVAAISRSGGRTYYADSVKGRFTISRDNAKNSVYLQMNSLKPEDTAVYYCAADTRIEVYYWGQGTQVTVSS | high polyreactivity
QVQLVESGGGLVQAGGSLRLSSAASGSIFSTNEMGCYRQAPGKERELVAAISVSGGSTYYADSVKGRFTISRDNAKNTVYLQMNSLKPEDTALYYCNADYTRGTMYYWGQGTQVTVSS | low polyreactivity
QVQLVESGGGLVQAGGSLRLSSAASGSIFTYYAMGGYRQAPGKEREFVAGISWSGGRTYYADSVKARFTISRDNAKNTGYLQMNSLKPEDTAVYYCNRQYRYIPSPFDYGGQGTQVTVSS | low polyreactivity
QVQLVESGGGLVQAGGSLRLSSAASGSIFVRNAMGWYRQAPGKERELVAAITSRVGSTYYADSVKGRFTISRDNAKNTVYLQMNSLKPEDTAVYYCAVVFAKRAWSRYDYWGQGTQVTVSS | high polyreactivity
QVQLVESGGGLVQAGGSLRLSSAASGSIFYPYAMGWYRQAPGKARELVSTISWRGGSTYYADSVKGRFTISRDNAKNTDYVQMNRLKPEVTAVYYCAARKRPYSVINGMDYWGQGTQVTVSS | low polyreactivity
QVQLVESGGGLVQAGGSLRLSSAASGSIFYYYSMGWYRQAPGKERELVAAITRSGGSTYYADSVKGLFTISRDNAKNTVYLQMNSQKPEDTAVYYCAKDAHAYRDLDYWGQGTQVTVSS | low polyreactivity
QVQLVESGGGLVQAGGSLRLSSAASGSILYVYAMGWYRQAPGKERELVAVITSGGSTNYADSVKGRFTISRDNAKNTVYLQMNSLKPEDTAVYYCAADPYSVYGGDYWGQGTQVTVSS | low polyreactivity
QVQLVESGGGLVQAGGSLRLSSAASGSTFDYYAMGWYRQAPGKERELVAAISTSGSSTYYADSVKGRFTISGDNAKNTVYLQMNSLKPEDTAVYYCAAPIRYKGGYWGQGTQVTVSS | low polyreactivity
QVQLVESGGGLVQAGGSLRLSSAASGSTFLVYSMGWSRQAPGKERELVAAIRGAGSTNYADSVKGRFTISRDNAKNTVYLQMIRLKPEDTAVYYCAAYLLYTPSMDYWGQGTQVTVSS | low polyreactivity
QVQLVESGGGLVQAGGSLRLSSAASGSTFLYYAMGWYRQAPGKERELVATITDGGSTNYADSVKGRFTISRDNAKNTVYLQMNSLKPEDTAVYYCATDSYHYSYGYSSLPEYDYWGQGTQVTVSS | low polyreactivity
QVQLVESGGGLVQAGGSLRLSSAASGSTFLYYVMGWYRQARGKERELVAGITSRGASTYYADSVKGRFTFSRDNAKNTVYLQMNSLKPEDTAVYDCAKPGFTYPGRYNYWGQGTQVTVSS | high polyreactivity
QVQLVESGGGLVQAGGSLRLSSAASGSTFPNYAMGWYRQAPGKERELVAAITSSTGRTYYADSVKGRFTISRDTAKNSVYVPLHSLKPADTAVYYCNAEVYSDPYNDHDYWGQGTQVTVSS | low polyreactivity
QVQLVESGGGLVQAGGSLRLSSAASGSTFRFNAKGWYRQAPGKERELVARISTIGGNTFYADSVKGRFTISRDNAKNTVYLQMNSLKTEDTAVYYCATTGGPSCRKYVYWGQGTQVTVSS | high polyreactivity
QVQLVESGGGLVQAGGSLRLSSAASGSTFRKNAMGWYRQAPGKERELVASISISGGRTNYADSVKGRFTISRDNAKNTVYLQMNSLKPEDTAVYYCAKQVKSYRTRYTFDYWGQGTQVTVSS | high polyreactivity
QVQLVESGGGLVQAGGSLRLSSAASGSTFTFYAMGWYRQAPGKERELVATISWSTGTTYYADSVKGRFTISRDNAKNTVYLQMNSLKPEVTAVYYCAAPWSYRYDYWGQGTQVTVSS | low polyreactivity
QVQLVESGGGLVQAGGSLRLSSAASGSTFTSYAMGWYRQAPGNEWELVAAINSGGGTNYADSVKGRFTISRDNAKNTVYLQMNSLKPEDTAVYYCAKSRYDYTKTEGGYWGQGTQGTVSS | low polyreactivity
